Assay: Arylsulfatase activity assay with 4-MUS substrate
Assay type: biochemical
Method: The 100-fold concentrated conditioned medium (CM) derived from each transfection of CHO cells as described above was dialyzed into 50 mM HEPES, pH 8.0. The His-tagged fusion proteins were bound to a Ni-NTA resin (QIAGEN) by rotation at 4° C. over night, then washed with 50 mM HEPES (pH 8.0), 3 times. 250 mM imidazole in 50 mM HEPES, pH 8.0 was used to elute the His-tagged fusion proteins from Ni-NTA. The resins with boud material or the eluates were mixed with 10 mM 4-methylumbelliferyl-sulfate (4-MUS; a substrate for sulfatases), and 10 mM lead acetate, in a total volume of 100 μl. The reaction mixtures were incubated at 37° C. for various periods of time. Reactions were terminated by the addition of 100 μl of 0.5 M Na2CO3/NaHCO3, pH 10.7 to 20 μl of the reaction mixture. The fluorescence of 4-methylumbelliferone was measured on a Multi-Well Plate Reader CytoFluorII (PerSeptive Biosystems). The fluorescence was determined at an excitation wavelength of 360 nm and emission wavelength of 460 nm. A substrate dose response curve was performed over the concentration range of 1 to 10 mM 4-MUS.
The synthetic fluorogenic compound 4-methylumbelliferyl sulfate (4-MUS) serves as a substrate for most sulfatases, both in the lysosomal and non-lysosomal classes. CHO cells were transfected with a cDNA for HSulf-1 or HSulf-2 or a vector control. Conditioned medium was collected and incubated with nickel resin (Ni-NTA) to bind the His-tagged recombinant proteins. The bead-bound material was assayed for activity on 4-MUS. For both enzymes, hydrolysis depended on time of reaction (FIG. 15A), concentration of substrate (FIG. 15B), and amount of CM (FIG. 15C). From the substrate dose-response curves of FIG. 15B and based on estimates of Sulf protein levels in CM, we approximated Vmax for the two Sulfs to be in the range of 1000-2000 nmol per min per mg of Sulf protein. Human glucosamine-6-sulfatase has a considerably lower Vmax against 4-MUS ([…]) whereas the Vmax of human N-acetylgalactosamine-4-sulfatase (arylsulfatase B) is much higher (48000).
HSulf-1, HSulf-2 or their mutated forms (HSulf-1 ΔCC and HSulf-2 ΔCC) was purified from the conditioned medium of transfected CHO cells by binding to Ni-NTA beads. A) The bead-bound material was tested for arylsulfatase activity as a function of time against 10 mM 4-MUS substrate at pH 8. The “no-enzyme” control was based on testing conditioned medium from vector-control transfected CHO cells. No activity was detected in the absence of added substrate (not shown). […] The activity of each Sulf was determined relative to that of beads exposed to an equivalent volume of vector-control conditioned medium. The activity of HG6S was determined (24 hr incubation) relative to that of the buffer. […]

Row | Substance | arylsulfatase activity of cysteine-to-alanine mutants (4-MUS, pH 8, 2 hr, mutant protein levels in CM equivalent to wild-type) | sulfatase activity (His-tagged fusion proteins from CHO conditioned medium, 10 mM 4-MUS, 37° C.)
1 | HSulf-2 ΔCC: catalytically inactive HSulf-2, cysteines 88 and 89 mutated to alanines (CC88, 89AA) | Lack of the activity | –
2 | HSulf-2: Human SULF2, an 870 amino acid sulfatase protein, SEQ ID NO:06; expressed with C-terminal Myc-His tag | – | Time-dependent sulfatase activity was detected

From US8216580B2, “Sulfatases and methods of use thereof” (The Regents of the University of California, priority 2000, dated 2012)
